Source: patent publication US20230374114A1 (published 2023)
Where two headings read alike, the source gives them in different places.

Assays:
[1] = molecular target: T1, Biotinylated SARS-CoV-2 S1 protein (ACRO, S1N-C82E8) (UniProt P0DTC2 16-685); assay: BLI
[2] = molecular target: T1, Biotinylated SARS-CoV-2 S1 protein …; assay: BLI; remark: listed apart in the source

B1: Ab 30 scFv-Fc (RBD-R3-E1-A5) (scFv, V domains shown)
VH: QVQLVQSGGGVVQPGKSLRLSCTASGFTFSDFPIHWVRQAPGKGLEWVGVISYDGNIKYYGDSVKGRFTISRDNAKNSLYLQMNSLRVEDTAVYYCARGGSSFDIWGQGTTVTVSS
VL: SYELTQPPSVSEAPRQRVTISCSGSTSNIGNNAVSWYQHLPGKAPKLLIYYNERLPSGVSDRFSGSKSGTSASLAISGLRSEDEADYYCAAWDDSLSGHVVFGGGTKLTVL
- Kd [1]: 0.314 nM

B2: Ab 19 scFv-Fc (scFv, V domains shown)
VH: EVQLVESGAEVKKPGESLKISCKGSGYSFTSYWIGWVRQMPGKGLEWMGIIYPGDSDTRYSPSFQGQVTISADKSISTAYLQWSSLKASDTAMYYCARRGDLDAFDIWGQGTMVTVSS
VL: QPGLTQPPAASGTPGQRVTVSCSGASANIGSNAVSWFKQFPETAPRLLISGNTHRPSGVPDRVSGSKSGTSASLTISGLQSDDEADYYCAAWDDSLNGYVFGSGTKVTVL
- Kd [2]: 0.13 nM
- Kd [1]: 0.13 nM

B3: S1-RBD-R3-T1-D7 Ab (Ab_34) (scFv, V domains shown)
VH: QVQLVQSGVEVKKPGESLKISCKGSGYSFTSYWIGWVRQMPGKGLEWMGIIYPGDSDTRYSPSFQGQVTISADKSISTAYLQWSSLKASDTAMYYCARTTYSYGSFDYWGQGTLVTVSS
VL: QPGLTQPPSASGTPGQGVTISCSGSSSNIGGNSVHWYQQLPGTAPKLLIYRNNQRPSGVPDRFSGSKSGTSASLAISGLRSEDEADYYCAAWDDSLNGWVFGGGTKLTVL
- Kd [1]: 0.184 nM

B4: RBD-R3-T1-H3 (Ab_2) (scFv, V domains shown)
VH: EVQLVQSGAEVKKPGSSVKVSCKTSGYTFTTSGISWVRQAPGQGLEWMGWISAYNGNTNYAQKLQGRVTMTTDTSTSTAYMELRSLRSDDTAVYYCARDFHLYYGMDVWGKGTLVTVSS
VL: QSALTQPPSASGSPGQSVTISCTGTSSDVGAYNYVSWYQQHPGKAPKLLIYDVTKRPPGVPDRFSGSKSGNTASLTVSGLQAEDEADYYCAVWDDGLNGRVVFGGGTKLTVL
- Kd [1]: < 0.001 nM

B5: Ab 27 scFv-Fc (scFv, V domains shown)
VH: QVQLVQSGTEVKKPGASVKVSCKASGYSFTGSHLHWVRQAPGQGLEWMGWINPDSGVINYAQKFQGRVTLTRDTSISTAYMELSGLRSDDTAVYYCARDKAIGYVWALDYWGQGTLVTVSS
VL: QSALTQPPSVSGSPGQSVTISCTGTSSDVGTYNRVSWYQQPPGKAPKLMIYEVSNRPSGVSNRFSGSKSGNTASLTISGLQAEDEADYYCSSYTRTFTYVFGTGTKVTVL
- Kd [2]: < 0.001 nM
- Kd [1]: < 0.001 nM

B6: Ab 15 scFv-Fc (scFv, V domains shown)
VH: QVQLVQSGGGLVKPGRSLRLSCTASGFTFGDYAMSWFRQAPGKGLEWVGFIRSKAYGGTTGYAASVKGRFTISRDDSKSIAYLQMNSLKTEDTAVYYCTTADDDMDVWGKGTTVTVSS
VL: NFMLTQPHSVSESPGKTVTISCTRSSGTIASNYVQWYQQRPGSAPTTVIYEDNQRPSGVPDRFSGSIDRSSNSASLTISGLTPDDEADYYCQSYDTSNHYVFGTGTKVTVL
- Kd [2]: 0.033 nM
- Kd [1]: 0.033 nM

B7: Ab_13 (scFv, V domains shown)
VH: QVTLKESGPKLVKPTQTLTLTCTFSGFSLSTSGVGVGWIRQPPGKALEWLALIYWDDDKRYSPSLKSRLTIAKDTSKYQVVLTMTNMDPVDTATYYCARISGSGYFYPFDIWGQGTMVTVSA
VL: NFMLTQPHSVSESPGKTVTISCTRSSGSIASNYVQWYQQRPGSAPTTVIYEDNQRPSGVPDRFSGSIDSSSNSASLTISGLKTEDEADYYCQSYDSSNLWVFGGGTKLTVL
- Kd [2]: 1.14 nM
- Kd [1]: 1.14 nM

B8: RBD-R3-E1-F5 Ab (Ab_36) (scFv, V domains shown)
VH: QVQLQQSGPGLVKPSQTLSLTCAIFGDSVTSNSAAWNWIRQSPSRGLEWLGRTYYSSKWYNDYAVSVKSRVTINADTSKNQLSLQLNSVTPEDTAVYYCARGWLRLSFDPWGQGTLVTVSS
VL: NFMLTQPHSVSESPGKTVTISCTGSSGSIASNYVQWLQQRLGSAPTTVIYEDNQRPSGVPDRFSGSIDSSSNSASLTISGLKTEDEADYYCQSYDPNNHGVVFGGGTKLTVL
- Kd [1]: 0.0306 nM

B9: Ab 38 (scFv, V domains shown)
VH: QVTLKESGPTLVKPTQTLTLTCTFSGFSLTTSGVSVGWIRQPPGKALEWLALIHWDDDKRYSPSLRSRLTITRDTSKNQVVLTVTDMDPADTGTYYCASFIMTVYAEYFEDWGQGTLVTVSS
VL: EIVLTQSPATLSVSPGERATLSCRASQSVSSNLAWYQQKPGQAPRLLMYDVSTRATGIPARFSGSGSGTEFSLTISSLQSEDFAVYYCQQRGAWPLTFGGGTKVEIK
- Kd [1]: 0.22 nM

B10: S1-RBD-R3-E1-E8 Ab (Ab 37) (scFv, V domains shown)
VH: QVQLVQSGAEVKKPGASVKVSCKASGYTFTSYGISWVRQAPGQGLEWMGWISTYNGNTNYAQKLQGRVTMTTDTSTSTAYMEVRSLRSDDTAVYYCARDVFGHFDYWGQGTLVTVSS
VL: NFMLTQPHSVSESPGKTVLISCTRSSGNIATNYVQWYQQRPGSAPTTVIYEDNQRPSGVPDRFSGSIDSSSNSASLTISGLKTEDEADYYCKSYDDGNHVFGGGTKLTVL
- Kd [1]: 0.907 nM

B11: Ab 25 scFv-Fc (scFv, V domains shown)
VH: QVQLVQSGGGLVQPGGSLRLSCAASGFTFSSYWMSWVRQAPGKGLEWVANIKQDGSEKYYVDSVKGRFTISRDNAKNSLYLQMNSLRAEDTAVYYCARGFYYYGAFDIWGQGTTVTVSS
VL: NFMLTQPHSVSESPGKTVTISCTGSSGSIASNYVQWYQQRPGSAPTTVIYEDNQRPSGVPDRFSGSIGSSSNSASLTISGLKTEDEADYYCQSYDSSNHWVFGGGTKLTVL
- Kd [2]: 10.1 nM
- Kd [1]: 10.1 nM

B12: S1-RBD-R3-T1-B12 Ab (Ab_31) (scFv, V domains shown)
VH: QVQLVQSGAEVKKPGSSVKVSCKASGGTFSSYTISWVRQAPGQGLEWMGGIIPILGTPNYAQKFQDRVAITADKSTSTAYMELSSLRSEDTAVYYCAVGSGWYSGFDYWGQGTLVTVSS
VL: NFMLTQPHSVSESPGKTVTISCTGSSGSIASNYVQWYQQRPGSAPTTVIYEDSQRPSGVPDRFSGSIDSSSNSASLTISGLKTEDEADYYCQSFHNSNPVIFGGGTKLTVL
- Kd [1]: 2040 nM

B13: Ab 20 (scFv, V domains shown)
VH: QVQLVQSGGGSVKPGGSLRLSCAASGYRLSDYYMHWVRQAPGKGLEWVANIKQDGSEKYYVDSVKGRFTISRDNAKNSLYLQMNSLRAEDTAVYYCARVRGWSRGYFDYWGQGTLVTVSS
VL: NFMLTQPHSVSESPGKTVTISCTGSSGSIASNYVQWYQQRPGSAPTTVIYEDNQRPSGVPDRFSGSIDSSSNSASLLISGLKTEDEADYYCQSYDSSNHWVFGGGTKLTVL
- Kd [2]: 5.01 nM
- Kd [1]: 5.01 nM

B14: Ab 21 (scFv, V domains shown)
VH: QVQLVQSGGGLVQPGGSLRLSCATSGFTFDDYAMHWVRQAPGKGLEWVSGISWNSGSIGYVDSVKGRFTISRDNRNNKVYLQMNNLRAEDTAVYYCARDWWGSIDHWGLGTLVTVSS
VL: QSALTQPRSVSGSPGQSVTISCTGTSSDVGGYDYVSWYQQHPGKAPKLIIYDVSKRPSGVPDRFSGSKSGNTASLTVSGLQAEDEADYYCSSYTSSSPVVFGGGTKLTVL
- Kd [2]: 1.28 nM
- Kd [1]: 1.28 nM

B15: Ab 26 scFv-Fc (scFv, V domains shown)
VH: QVQLVQSGGGLVQPGRSLRLSCAASGFTFDDYAMHWVRQVPGKGLEWVSGIDWNSGVIGYADSVKGRFTISRDNAKNSLYLQMNSLRAEDTALYYCAKDAYSYGFLGAFDIWGQGTMVTVSS
VL: LPVLTQPPSVSVAPGQTASITCGGDNIRTKGVHWYQQKPGQAPLLVIYYASDRPSGIPERFSGSSSGNTATLTISRVEAGDEADYYCQVWDSSSDLVVFGGGTTLTVL
- Kd [2]: 0.0875 nM
- Kd [1]: 0.0875 nM

B16: Ab_16 (scFv, V domains shown)
VH: QVQLVQSGGGVVQPGRSLRLSCAASGFTFSNYGMHWVRQAPGKGLEWVALIWERGSKKDYADSVKGRFTVSRDNSKNTLYLQMNSLRPEDTAVYFCAREGISMTGAEYFQHWGQGTLVTVSS
VL: QSVLTQPPSVSGSPGQRVTMSCTGSSSNIGAGYDVHWYQQVPGAAPRLLIYGTNNRPSGVPDRFSGSKSGTSASLTITGLQAEDEADYYCQSYDNSLTDPYVFGTGTKVTVL
- Kd [2]: 2.18 nM
- Kd [1]: 2.18 nM

B17: RBD-R3-E1-B3 Ab (Ab_32) (scFv, V domains shown)
VH: QVQLVQSGAEVKKPGESLKISCKGSGYSFTSYWIGWVRQMPGKGLEWMGIIYPGDSDTRYSPSFQGQVTISADKSISTAYLQWSSLKASDTAMYYCARGWQWHDYWGQGTLVTVSS
VL: QTVVTQEPAVSVALGQTVRITCQGDSLRSYYASWYQQKPGQAPVLVVYDKDKRPSGIPDRFSGSTSGNTASLTITGAQAEDEADYYCNSRDRSDNHVVFGGGTKLTVL
- Kd [1]: 0.168 nM

B18: Ab_18 (scFv, V domains shown)
VH: EVQLVQSGGGVVQPGRSLRVSCAASGFSFSRYGMHWVRQAPGKGLEWVAFIRHDGSKKYYADSVEGRFTISRDNSRNTVSLEMNSLRGEDTAVYYCAKDGRLEAALDDWGQGTLVTVSS
VL: NFMLTQPHSMSGSAGKTVTVSCIRSSGSIANNFVQWYQQRPGSAPTTVIYEDNQRPSGVPDRFSGSIDSSSNSASLTISGLKTEDEADYYCQSYDSSNLVFGGGTRLTVL
- Kd [2]: 0.121 nM
- Kd [1]: 0.121 nM

B19: S1-R3-T1-C4 (Ab_8) (scFv, V domains shown)
VH: QVQLVQSGAEVKKPGSSVKVSCKASGGTFSSYAISWLRQAPGQGLEWMGWINPNSGGTNYAQKFQGRVTMTRDTSISTAYMELSRLRSDDTAVYYCARGSGGYYLGWGQGTLVTVSS
VL: QPGLTQPPSVSKGLRQTATLTCTGNSNNVGNQGAAWLQQHQGHPPKLLSYMNNNRPPGISERFSASRSGNTASLTITGLQPEDEADYYCSAWDSSLSRWVFGGGTKLSVL
- Kd [1]: 325 nM

B20: S1-RBD-R3-T1-C7 Ab (Ab 29) (scFv, V domains shown)
VH: QVQLQQSGPGLVKPSQTLSLTCAISGDSVSSYSDAWNWIRQSPSRGLEWLGRTYYRSKWYNDYAVSVKSRITINPDTSKNQFSLQLSSVTPEDTAVYYCAREIVATTPFRNYYYGMDVWGQGTTVTVSS
VL: NFMLTQPHSVSESPGNTVTISCTRTSGSIASNYVQWYQQRPGSSPTTVIFQDKLRPSGVPDRFSGSIDSSSNSASLTISGLKTEDEADYYCQSYDSSSLWVFGGGTKLTVL
- Kd [1]: < 0.001 nM

B21: Ab 14 scFv-Fc (scFv, V domains shown)
VH: QVQLQQSGPGLVKPSQTLSLTCAISGDSVSSNSAAWNWIRQSPARGLEWLGRTYYRSRWYNDYAISMKSRITINPDTSKNQFSLQLESVTPEDTAVYYCAREIRGFDYWGQGTLVTVSS
VL: QSVLTQPPSASGSPGQSVTISCTGTSSDVGAYNFVSWYQHHPGKAPKLIIYDFNKRPSGVPDRFSGSKSGNTASLTVSGLQADDEADYYCSSYAGSNNFDVVFGGGTKLTVL
- Kd [2]: 0.594 nM
- Kd [1]: 0.594 nM
